Data on four molecules can be found in PMC6280533, “Construction and characterization of a synthetic Baculovirus-inducible 39K promoter”.

Data set [1] has as its target T1, IE-1 (IE1-His) (Bombyx mori nucleopolyhedrovirus (BmNPV), UniProt P33245 1-587).
T1 sequence: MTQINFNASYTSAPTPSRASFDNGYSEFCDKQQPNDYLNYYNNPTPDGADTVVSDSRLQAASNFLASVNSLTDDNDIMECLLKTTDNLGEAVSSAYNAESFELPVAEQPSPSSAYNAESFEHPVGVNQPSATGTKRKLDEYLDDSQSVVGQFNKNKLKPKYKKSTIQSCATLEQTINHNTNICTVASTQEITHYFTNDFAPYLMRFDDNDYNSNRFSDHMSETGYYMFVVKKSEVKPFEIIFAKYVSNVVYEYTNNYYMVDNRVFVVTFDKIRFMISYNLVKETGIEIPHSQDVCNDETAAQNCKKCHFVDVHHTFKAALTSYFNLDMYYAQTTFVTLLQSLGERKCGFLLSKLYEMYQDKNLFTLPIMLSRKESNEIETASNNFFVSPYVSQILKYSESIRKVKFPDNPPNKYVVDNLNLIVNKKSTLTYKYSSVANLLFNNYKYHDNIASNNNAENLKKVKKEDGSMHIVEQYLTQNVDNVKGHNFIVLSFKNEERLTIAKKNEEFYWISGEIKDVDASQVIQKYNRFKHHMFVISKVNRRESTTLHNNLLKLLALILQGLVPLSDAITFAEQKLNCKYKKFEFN
Nature of the data set: EMSA. To be noted: protein: recombinant; tags: His (pCold-I); chain copies: 2; label: 5' biotin; blunt.

Data set [2] addresses T1, IE-1 (IE1-His). In words: EMSA; probe 1, 2, 6 pmol/L; IE-1 0.8 ug/L (so in the source). To be noted: protein: recombinant; tags: His (pCold-I); chain copies: 2; label: 5' biotin; blunt. For orientation: A gel shift assay detects complexes by their altered migration in electrophoresis.

B1: 39K probe 4 (+2 to +47) (dsDNA)
DNA 1: AGTAATTACCGACAAATGTTCTAAGCGTAAGGTGTGTCTTCATCAC
DNA 2: GTGATGAAGACACACCTTACGCTTAGAACATTTGTCGGTAATTACT
Take B1: in data set [1], the binding result is on record as “no binding”.

B2: 39K probe 3 (-310 to -355) (dsDNA)
DNA 1: AATATTTTAATTATATGAACGACAAACAATTGATCACGTACGATTA
DNA 2: TAATCGTACGTGATCAATTGTTTGTCGTTCATATAATTAAAATATT
For the molecule B2, the binding result in data set [2] is recorded as “binds”.

B3: 39K probe 2 (-386 to -431) (dsDNA)
DNA 1: GACTATCGTATAATATTAAAACCGCGACGCTTCAATTGCGAAATAA
DNA 2: TTATTTCGCAATTGAAGCGTCGCGGTTTTAATATTATACGATAGTC
Consider B3, for which, in data set [1], the binding result is recorded as “no binding”.

B4: 39K probe 1 (-486 to -532) (dsDNA)
DNA 1: AGTATTTGATATACGTAGGCGTCGTGCGCGGCAACTTGATTGACGTG
DNA 2: CACGTCAATCAAGTTGCCGCGCACGACGCCTACGTATATCAAATACT
For the molecule B4, the binding result in data set [1] was “no binding”.
